This note sets out measurements from patent US20230132049A1 (Genmab, published 2023).

Usually EC50 (read off the curve) stands for the concentration giving half of the maximal effect.

Test [1] deals with T1, rhesus monkey (Macaca mulatta) CD30 (rhesus monkey, UniProt P28908 19-595 (human entry)).
T1 construct: Full-length construct expressed in Expi293F cells; also called mmCD30
T1 chain: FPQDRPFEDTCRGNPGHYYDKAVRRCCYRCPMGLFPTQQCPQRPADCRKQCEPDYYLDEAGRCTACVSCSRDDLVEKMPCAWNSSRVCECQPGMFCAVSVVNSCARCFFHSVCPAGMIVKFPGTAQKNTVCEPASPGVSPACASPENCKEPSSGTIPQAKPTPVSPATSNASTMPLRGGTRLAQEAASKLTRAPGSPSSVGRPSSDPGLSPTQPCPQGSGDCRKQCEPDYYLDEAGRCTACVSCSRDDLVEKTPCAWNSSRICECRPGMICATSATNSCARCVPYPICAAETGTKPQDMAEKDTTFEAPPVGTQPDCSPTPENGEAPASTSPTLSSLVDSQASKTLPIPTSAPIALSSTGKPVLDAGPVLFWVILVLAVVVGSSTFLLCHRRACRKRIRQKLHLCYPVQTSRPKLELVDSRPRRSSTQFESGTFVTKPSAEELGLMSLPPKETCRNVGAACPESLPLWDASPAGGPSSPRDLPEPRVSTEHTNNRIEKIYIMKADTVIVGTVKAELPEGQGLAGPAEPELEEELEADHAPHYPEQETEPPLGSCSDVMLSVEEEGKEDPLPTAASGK
The experiment in a line: flow cytometry on Expi293F cells transfected with rhesus monkey CD30. In general terms: A flow cytometer gives signals particle by particle.

Test [2] addresses T2, human CD30 (human, UniProt P28908 19-595).
T2 construct: Endogenous on HL, ALCL and NHL tumor cell lines, or full-length huCD30 (Uniprot P28908) transiently expressed in Expi293F or HEK293 cells; also called huCD30; TNFRSF8
T2 sequence: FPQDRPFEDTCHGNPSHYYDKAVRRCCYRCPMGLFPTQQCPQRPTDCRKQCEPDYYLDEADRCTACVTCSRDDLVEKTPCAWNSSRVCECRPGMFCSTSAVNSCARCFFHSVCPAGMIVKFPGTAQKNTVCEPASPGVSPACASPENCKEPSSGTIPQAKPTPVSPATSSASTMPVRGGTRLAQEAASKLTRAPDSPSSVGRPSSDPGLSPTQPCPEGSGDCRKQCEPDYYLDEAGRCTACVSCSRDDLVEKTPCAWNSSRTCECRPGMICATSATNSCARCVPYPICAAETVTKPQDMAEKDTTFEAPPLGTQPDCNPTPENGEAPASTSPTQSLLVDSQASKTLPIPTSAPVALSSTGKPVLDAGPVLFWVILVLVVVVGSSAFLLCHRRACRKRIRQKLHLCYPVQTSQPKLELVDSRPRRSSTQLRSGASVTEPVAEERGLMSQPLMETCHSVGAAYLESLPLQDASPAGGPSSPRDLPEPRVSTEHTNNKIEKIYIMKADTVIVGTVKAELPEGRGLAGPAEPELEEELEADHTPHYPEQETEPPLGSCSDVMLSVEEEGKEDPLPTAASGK
The test is described as follows: flow cytometry on NCEB-1 cells. As for the experimental part:
(§1) Cells (3×10⁴ cells/well) were incubated in polystyrene 96-well round-bottom plates (Greiner bio-one, cat. no. 650180) with serial dilutions of antibodies (range 0.0046 to 10 μg/mL in 3-fold dilution steps) in 50 μL staining buffer at 4° C. for 30 min. After washing twice in staining buffer, cells were incubated with 50 μL secondary antibody at 4° C. for 30 min. […] Next, cells were washed twice in staining buffer, resuspended in 100 μL staining buffer supplemented with TO-PRO-3 iodide (Thermo Fisher Scientific; cat. no. T3605; 1:8000 dilution) and analyzed on a FACSCelesta flow cytometer (BD Biosciences, USA). Live cells were gated based on FSC/SSC and absence of TOPRO-3 staining. Binding curves were analyzed by non-linear regression of log-transformed data (sigmoidal dose-response with variable slope, four parameters) using GraphPad Prism V7.02 software (GraphPad Software, San Diego, Calif., USA).

In test [3] the target is T2, human CD30. The test is described as follows: flow cytometry on DEL cells.
Test [4] has as its target T2, human CD30. The experiment in a line: cell-based or functional assay.
Test [5] has as its target T2, human CD30. The experiment in a line: flow cytometry on SU-DHL-1 cells. The procedure:
Binding of CD3×CD30 bispecific antibodies to two CD30-expressing human tumor cell lines SU-DHL-1 (ALCL; ATCC, cat. no. ACC 356) and HDLM-2 (HL; ATCC, cat. no. CRL-2965) was analyzed by flow cytometry.
as §1

The target in test [6] is T1, rhesus monkey (Macaca mulatta) CD30. The test is described as follows: flow cytometry on Expi293F cells transfected with rhesus monkey CD30.
The target is the same in test [7]. The test is described as above.
Test [8] shares this target. Described as above.
Test [9] addresses T2, human CD30. The experiment in a line: flow cytometry on Expi293F cells transfected with human CD30. The procedure:
Cells (3×10⁴ cells/well) were incubated in polystyrene 96-well round-bottom plates (Thermo Scientific, cat. no. 163320) with serial dilutions of antibodies (ranging from 0.0002 to 50 μg/mL in 4-fold dilution steps) in 50 μL staining buffer at 4° C. for 30 min. Experiments were performed in technical duplicate. After washing twice in staining buffer, cells were incubated in 50 μL secondary antibody at 4° C. for 30 min. […] Cells were washed twice in staining buffer, resuspended in 30 μL staining buffer containing 0.4% EDTA and the ToPro-3 viability marker (Invitrogen, cat. no. T3605) diluted 1:10,000. Cells were analyzed on an iQue Screener (Intellicyt Corporation, USA). Binding curves were analyzed using non-linear regression (sigmoidal dose-response with variable slope) using GraphPad Prism V9.0.0 software (GraphPad Software, San Diego, Calif., USA).

Read-outs that look alike come from different tables or passages of the source.

B1: IgG1-CD30-HeFi-I-FEAR (antibody, V domains shown)
VH: EVKLVESGGGLVQPGGSLRLSCATSGFTFSDYYMNWVRQPPGKALEWLGFIRNKANGYTTEFSASVMGRFTISRDDSQSILYLQMNTLRAEDSATYYCARDPPYGNPHYYAMDYWGQGTSVTVSS
VL: DIVLTQSPASLAVSLGQRATISCRASKSVSASGYNYMHWYQQKAGQPPKLLIHLASNLESGVPARFSGSGSGTDFTLNIHPVEEEDASTYYCQHSGELPFTFGSGTKLEIKR
notes: Monospecific, bivalent parental antibody
B1: in [1], the binding result is listed as “no binding (tested: 10 µg/mL)”.

B2: IgG1-CD30-MDX060-FERR (antibody)
heavy: QVQLQQWGAGLLKPSETLSLTCAVYGGSFSAYYWSWIRQPPGKGLEWIGDINHGGGTNYNPSLKSRVTISVDTSKNQFSLKLNSVTAADTAVYYCASLTAYWGQGSLVTVSSASTKGPSVFPLAPSSKSTSGGTAALGCLVKDYFPEPVTVSWNSGALTSGVHTFPAVLQSSGLYSLSSVVTVPSSSLGTQTYICNVNHKPSNTKVDKRVEPKSCDKTHTCPPCPAPEFERGPSVFLFPPKPKDTLMISRTPEVTCVVVDVSHEDPEVKFNWYVDGVEVHNAKTKPREEQYNSTYRVVSVLTVLHQDWLNGKEYKCKVSNKALPAPIEKTISKAKGQPREPQVYTLPPSREEMTKNQVSLTCLVKGFYPSDIAVEWESNGQPENNYKTTPPVLDSDGSFFLYSRLTVDKSRWQQGNVFSCSVMHEALHNHYTQKSLSLSPG
light: DIQMTQSPTSLSASVGDRVTITCRASQGISSWLTWYQQKPEKAPKSLIYAASSLQSGVPSRFSGSGSGTDFTLTISSLQPEDFATYYCQQYDSYPITFGQGTRLEIKRTVAAPSVFIFPPSDEQLKSGTASVVCLLNNFYPREAKVQWKVDNALQSGNSQESVTEQDSKDSTYSLSSTLTLSKADYEKHKVYACEVTHQGLSSPVTKSFNRGEC
notes: Monospecific, bivalent parental antibody; also called IgG1-huCD30-MDX060-FERR
Take B2: the entries for the “EC50 (read off the curve)” value in [2] and in test [3] were ~0.05 µg/mL and ~0.09 µg/mL, respectively.

B3: bsG1-huCD3-FEAL×CD30-HeFi-I-FEAR (bispecific antibody, human IgG1, kappa, lambda)
heavy 1: not shown
light 1: not shown
heavy 2: EVKLVESGGGLVQPGGSLRLSCATSGFTFSDYYMNWVRQPPGKALEWLGFIRNKANGYTTEFSASVMGRFTISRDDSQSILYLQMNTLRAEDSATYYCARDPPYGNPHYYAMDYWGQGTSVTVSSASTKGPSVFPLAPSSKSTSGGTAALGCLVKDYFPEPVTVSWNSGALTSGVHTFPAVLQSSGLYSLSSVVTVPSSSLGTQTYICNVNHKPSNTKVDKRVEPKSCDKTHTCPPCPAPEFEGGPSVFLFPPKPKDTLMISRTPEVTCVVVAVSHEDPEVKFNWYVDGVEVHNAKTKPREEQYNSTYRVVSVLTVLHQDWLNGKEYKCKVSNKALPAPIEKTISKAKGQPREPQVYTLPPSREEMTKNQVSLTCLVKGFYPSDIAVEWESNGQPENNYKTTPPVLDSDGSFFLYSRLTVDKSRWQQGNVFSCSVMHEALHNHYTQKSLSLSPG
light 2: not shown
notes: Bispecific IgG1 by Fab-arm exchange of the two parental antibodies; also called BsIgG1-huCD3-FEAL×CD30-HeFi-I-FEAR
B3: in test [4], the “cytotoxicity IC50 (µg/mL) average, Karpas-299 cells” value was 0.052 µg/mL and the “cytotoxicity maximum lysis (%) average, Karpas-299 cells” value turned out to be 43%. For the same molecule, the binding result in [1] is on record as “no binding (tested: 10 µg/mL)”.

B4: IgG1-CD30-T408-FEAR (antibody, V domains shown)
VH: QVQLQQPGAELVRPGASVKLSCKASGYTFTSYWINWVKQRPGQGLEWIGNIYPSDSYSNYNQKFKDKATLTVDKSSSTAYMQLSSPTSEDSAVYYCTLGSYWGQGTLVTVSA
VL: not shown
notes: as for B1
As to B4, the concentration giving a half-maximal response (EC50 (read off the curve)) in [5] was ~0.7 µg/mL.

B5: IgG1-CD30-hAC10-FEAR (antibody, V domains shown)
VH: QVQLVQSGAEVKKPGASVKVSCKASGYTFTDYYITWVRQAPGQGLEWMGWIYPGSGNTKYNEKFKGRVTMTRDTSISTAYMELSRLRSDDTAVYYCANYGNYWFAYWGQGTLVTVSS
VL: DIVMTQSPDSLAVSLGERATINCKASQSVDFDGDSYMNWYQQKPGQPPKLLIYAASNLESGVPDRFSGSGSGTDFTLTISSLQAEDVAVYYCQQSNEDPWTFGQGTKVEIKR
notes: as for B1
As for B5, the “EC50 (read off the curve)” value in test [5] is ~0.05 µg/mL. The binding result in test [6] is on record as “binds”.

B6: bsG1-huCD3-FEAL×CD30-T405-FEAR (bispecific antibody, human IgG1, kappa, lambda)
heavy 1: not shown
light 1: not shown
heavy 2: QVQLQQIGAELVRPGASVKLSCKASGYTFNNYWINWVKQRPGQGLEWIGNIYPSDSRSNYNQKFKDKATLTVDKPSSTAYMQLSSPTSEDSAVYYCTLGSYWGQGTLVTVSAASTKGPSVFPLAPSSKSTSGGTAALGCLVKDYFPEPVTVSWNSGALTSGVHTFPAVLQSSGLYSLSSVVTVPSSSLGTQTYICNVNHKPSNTKVDKRVEPKSCDKTHTCPPCPAPEFEGGPSVFLFPPKPKDTLMISRTPEVTCVVVAVSHEDPEVKFNWYVDGVEVHNAKTKPREEQYNSTYRVVSVLTVLHQDWLNGKEYKCKVSNKALPAPIEKTISKAKGQPREPQVYTLPPSREEMTKNQVSLTCLVKGFYPSDIAVEWESNGQPENNYKTTPPVLDSDGSFFLYSRLTVDKSRWQQGNVFSCSVMHEALHNHYTQKSLSLSPG
light 2: DVVMTQTPLTLSVTIGQPASISCKSSQSLSDSDGKTYLNWLLQRPGQSPKRLIYLVSKLDSGVPDRFTGSGSGTDFTLKISRVEAEDLGVYYCWQGAHFPRTFGGGTKLEIKRTVAAPSVFIFPPSDEQLKSGTASVVCLLNNFYPREAKVQWKVDNALQSGNSQESVTEQDSKDSTYSLSSTLTLSKADYEKHKVYACEVTHQGLSSPVTKSFNRGEC
notes: Bispecific IgG1 by Fab-arm exchange of the two parental antibodies; also called bsIgG1-huCD3-FEAL×CD30-T405-FEAR
Turning to B6, in [4], the “cytotoxicity IC50 (µg/mL) average, Karpas-299 cells” value worked out at 0.078 µg/mL and the “cytotoxicity maximum lysis (%) average, Karpas-299 cells” value came to 41.7%. In addition, the binding result in test [7] is listed as “binds”.

B7: IgG1-CD30-HRS-3-FEAR (antibody, V domains shown)
VH: QVQLQQSGAELARPGASVKMSCKASGYTFTTYTIHWVRQRPGHDLEWIGYINPSSGYSDYNQNFKGKTTLTADKSSNTAYMQLNSLTSEDSAVYYCARRADYGNYEYTWFAYWGQGTTVTVSS
VL: DIVMTQSPKFMSTSVGDRVTVTCKASQNVGTNVAWFQQKPGQSPKVLIYSASYRYSGVPDRFTGSGSGTDFTLTISNVQSEDLAEYFCQQYHTYPLTFGGGTKLEINR
notes: as for B1
Take B7: the figures for the 50% effective concentration (EC50 (read off the curve)) in [8] and in test [9] were ~0.1 µg/mL and ~0.06 µg/mL, respectively.
